T1: mouse MAdCAM expressed on cells (mouse, UniProt Q61826 22-405)
T1 construct: whole, on cells
T1 sequence (looked up): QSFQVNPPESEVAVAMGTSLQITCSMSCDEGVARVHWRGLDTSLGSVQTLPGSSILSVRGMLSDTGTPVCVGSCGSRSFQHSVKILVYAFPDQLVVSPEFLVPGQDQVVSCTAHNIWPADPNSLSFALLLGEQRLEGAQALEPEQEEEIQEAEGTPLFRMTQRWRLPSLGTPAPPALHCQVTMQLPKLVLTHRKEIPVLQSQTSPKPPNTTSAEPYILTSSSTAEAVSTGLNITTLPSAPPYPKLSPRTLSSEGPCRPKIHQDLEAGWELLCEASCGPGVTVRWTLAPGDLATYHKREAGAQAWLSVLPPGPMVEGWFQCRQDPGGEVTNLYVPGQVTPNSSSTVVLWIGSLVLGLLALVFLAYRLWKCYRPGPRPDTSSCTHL

T2: human MAdCAM expressed on cells (human, UniProt Q13477 19-382)
T2 construct: whole, on cells; also called MADCAM1
T2 sequence (looked up): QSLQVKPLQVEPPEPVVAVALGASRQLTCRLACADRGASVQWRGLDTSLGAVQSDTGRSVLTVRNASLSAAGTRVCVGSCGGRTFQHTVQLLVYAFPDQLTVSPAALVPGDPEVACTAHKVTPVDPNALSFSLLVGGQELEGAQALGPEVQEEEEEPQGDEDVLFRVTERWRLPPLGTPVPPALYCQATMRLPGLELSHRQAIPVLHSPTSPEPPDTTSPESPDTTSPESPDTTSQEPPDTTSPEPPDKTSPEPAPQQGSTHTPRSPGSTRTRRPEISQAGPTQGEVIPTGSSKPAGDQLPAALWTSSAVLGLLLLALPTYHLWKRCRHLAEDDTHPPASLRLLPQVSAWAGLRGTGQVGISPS


What was measured:
[1] = target: T1, mouse MAdCAM expressed on cells; experiment: cell binding
[2] = target: T2, human MAdCAM expressed on cells; experiment: cell binding

| Binder | binding result [1] | binding result [2] |
| --- | --- | --- |
| MAdCAM Antibody Table 1 Clone 35 (scFv) scFv: EVQLLESGGGLVQPGGSLRLSCAASGFSFSSYTMNWVRQAPGKGLEWVSFITSSSRTIYYADSVKGRFTISRDNSKNTLYLQMNSLRAEDTAVYYCARDRRGDYGDSWYFDLWGRGTLVTVSSGGGGSGGGGSGGGGSGGGGSEIVMTQSPATLSVSPGERATLSCRASQSVRNYLAWYQQKPGQAPRLLIYGASTRATGIPARFSGSGSGTEFTLTISSLQSEDFAVYYCQQYGSSPLTFGGGTKVEIK | no binding | binds |
| MAdCAM Antibody Table 1 Clone 33 (scFv) scFv: QVQLVQSGAEVKKPGASVKVSCKASGYTFTSYGISWVRQAPGQGLEWMGWMHPKSGDTGLTQKFQGRVTMTRDTSTSTVYMELSSLRSEDTAVYYCARDTPYYYYGMDVWGQGTTVTVSSGGGGSGGGGSGGGGSGGGGSDIQMTQSPSSLSASVGDRVTITCRASQSISSWLAWYQQKPGKAPKLLIYAASSLQSGVPSRFSGSGSGTDFTLTISSLQPEDFATYYCQQSYSVPITFGQGTKVEIK | no binding | binds |
| MAdCAM Antibody Table 1 Clone 42 (scFv) scFv: QVQLVQSGAEVKKPGSSVKVSCKASGGTLSRYGVSWVRQAPGQGLEWMGGIIPIFGTTNYAQKFQGRVTITADESTSTAYMELSSLRSEDTAVYYCARDRVYYDSSGYPTWYFDLWGRGTLVTVSSGGGGSGGGGSGGGGSGGGGSEIVMTQSPATLSVSPGERATLSCRASQSVSSSYLAWYQQKPGQAPRLLIYGASTRATGIPARFSGSGSGTEFTLTISSLQSEDFAVYYCQQYGSSPITFGQGTKVEIK | no binding | binds |
| MAdCAM Antibody Table 1 Clone 38 (scFv) scFv: EVQLLESGGGLVQPGGSLRLSCAASGFTFGSYSMSWVRQAPGKGLEWVSAIGTGGGTYYADSVKGRFTISRDNSKNTLYLQMNSLRAEDTAVYYCAKGTPYYYYYGMDVWGQGTMVTVSSGGGGSGGGGSGGGGSGGGGSDIQMTQSPSSLSASVGDRVTITCRASQPLSNWLAWYQQKPGKAPKLLIYAASSLQSGVPSRFSGSGSGTDFTLTISSLQPEDFATYYCQQAISFPLTFGGGTKVEIK | no binding | binds |
| MAdCAM Antibody Table 1 Clone 32 (scFv) scFv: QVQLVQSGAEVKKPGASVKVSCKASGYTLTDYYMHWVRQAPGQGLEWMGIINPSGGSTSYAQKFQGRVTMTRDTSTSTVYMELSSLRSEDTAVYYCAREEYSSSSGYFDYWGQGTLVTVSSGGGGSGGGGSGGGGSGGGGSDIQMTQSPSSLSASVGDRVTITCRASQGISSWLAWYQQKPGKAPKLLIYAASSLQSGVPSRFSGSGSGTDFTLTISSLQPEDFATYYCQQSYSTPLTFGQGTKVEIK | no binding | binds |
| MAdCAM Antibody Table 1 Clone 31 (scFv) scFv: QVQLVQSGAEVKKPGASVKVSCKASGYTFTSYYMHWVRQAPGQGLEWMGIINPSGGSTSYAQKFQGRVTMTRDTSTSTVYMELSSLRSEDTAVYYCARDTGYSYGRYYYYGMDVWGQGTLVTVSSGGGGSGGGGSGGGGSGGGGSDIQMTQSPSSLSASVGDRVTITCRASQSIGRWLAWYQQKPGKAPKLLIYDASNLQSGVPSRFSGSGSGTDFTLTISSLQPEDFATYYCQQSYSIPITFGQGTKVEIK | no binding | binds |
| MAdCAM Antibody Table 1 Clone 36 (scFv) scFv: QVQLVQSGAEVKKPGASVKVSCKASGYTFTGHYMHWVRQAPGQGLEWMGIINPSGGSTSYAQKFQGRVTMTRDTSTSTVYMELSSLRSEDTAVYYCARDTGYSYGRYYYYGMDVWGQGTTVTVSSGGGGSGGGGSGGGGSGGGGSDIQMTQSPSSLSASVGDRVTITCRASQSIGRWLAWYQQKPGKAPKLLIYDASNLQSGVPSRFSGSGSGTDFTLTISSLQPEDFATYYCQQSYSIPITFGGGTKVEIK | no binding | binds |
| MAdCAM Antibody Table 1 Clone 40 (scFv) scFv: QVQLVQSGAEVKKPGASVKVSCKASGYTFTSYGISWVRQAPGQGLEWMGIINPRGGSTIFAQKFQGRVTMTRDTSTSTVYMELSSLRSEDTAVYYCARGTRSSGWYGWFDPWGQGTLVTVSSGGGGSGGGGSGGGGSGGGGSDIQMTQSPSSLSASVGDRVTITCRASQGIGNWLAWYQQKPGKAPKLLIYAASNLETGVPSRFSGSGSGTDFTLTISSLQPEDFATYYCQQIHSYPLTFGGGTKVEIK | no binding | binds |
| MAdCAM Antibody Table 1 Clone 39 (scFv) scFv: QVQLVQSGAEVKKPGASVKVSCKASGYTFTSYYMHWVRQAPGQGLEWMGWMNPNSGNTGYAQKFQGRVTMTRDTSTSTVYMELSSLRSEDTAVYYCARDLGYYDSSGYFGAFDIWGQGTTVTVSSGGGGSGGGGSGGGGSGGGGSDIQMTQSPSSLSASVGDRVTITCQSSEDISSSLNWYQQKPGKAPKLLIYAASSLQIGVPSRFSGSGSGTDFTLTISSLQPEDFATYYCQQTYSTPYTFGQGTKVEIK | no binding | binds |
| MAdCAM Antibody Table 1 Clone 45 (scFv) scFv: EVQLLESGGGLVQPGGSLRLSCAASGFSVSSNYMSWVRQAPGKGLEWVAGISYDGSSKPYADSVKGRFTISRDNSKNTLYLQMNSLRAEDTAVYYCARSRGIAARPLQHWGQGTLVTVSSGGGGSGGGGSGGGGSGGGGSDIVMTQSPDSLAVSLGERATINCKSSQSVLYSSNNKNYLAWYQQKPGQPPKLLIYWASTRQSGVPDRFSGSGSGTDFTLTISSLQAEDVAVYYCHQYYGHPPTFGGGTKVEIK | no binding | binds |
| MAdCAM Antibody Table 1 Clone 43 (scFv) scFv: EVQLLESGGGLVQPGGSLRLSCAASGFTFDDFAMHWVRQAPGKGLEWVSGISGNGDSRYYADSVKGRFTISRDNSKNTLYLQMNSLRAEDTAVYYCARDASYGGNYGMDVWGQGTTVTVSSGGGGSGGGGSGGGGSGGGGSDIQMTQSPSSLSASVGDRVTITCQASQDIRNYLNWYQQKPGKAPKLLIYKASTLESGVPSRFSGSGSGTDFTLTISSLQPEDFATYYCQQANSFPLTFGPGTKVDIK | no binding | binds |

Continued, values first:

| binding result [1] | binding result [2] | Binder |
| --- | --- | --- |
| no binding | binds | MAdCAM Antibody Table 1 Clone 44 (scFv) scFv: EVQLVESGGGLVKPGGSLRLSCAASGFTFSSYWMSWVRQAPGKGLEWVSAIGTGGGTYYAAPVKGRFTISRDDSKNTLYLQMNSLKTEDTAVYYCAREWLVPYYGMDVWGQGTTVTVSSGGGGSGGGGSGGGGSGGGGSDIQMTQSPSSLSASVGDRVTITCRASQSISRWLAWYQQKPGKAPKLLIYGASNLQSGVPSRFSGSGSGTDFTLTISSLQPEDFATYYCQQSYSTPWTFGQGTKVEIK |
| no binding | binds | MAdCAM Antibody Table 1 Clone 46 (scFv) scFv: EVQLLESGGGLVQPGGSLRLSCAASGFSVSSNYMSWVRQAPGKGLEWVAGISYDGSSKPYADSVKGRFTISRDNSKNTLYLQMNSLRAEDTAVYYCARSRGIAARPLQHWGQGTLVTVSSGGGGSGGGGSGGGGSGGGGSDIVMTQSPDSLAVSLGERATINCKSSQSVLYSSNNKNYLAWYQQKPGQPPKLLIYQASTRQSGVPDRFSGSGSGTDFTLTISSLQAEDVAVYYCHQYYGHPPTFGGGTKVEIK |
| no binding | binds | MAdCAM Antibody Table 1 Clone 47 (scFv) scFv: EVQLLESGGGLVQPGGSLRLSCAASGFSFSDYGMHWVRQAPGKGLEWVSAISGSGGSTYYADSVKGRFTISRDNSKNTLYLQMNSLRAEDTAVYYCARDGGWQPAAILDYWGQGTLVTVSSGGGGSGGGGSGGGGSGGGGSDIQMTQSPSSLSASVGDRVTITCRASQGISNNLNWYQQKPGKAPKLLIYDASNLETGVPSRFSGSGSGTDFTLTISSLQPEDFATYYCQQSYSTPLTFGGGTKVEIK |
| no binding | binds | MAdCAM Antibody Table 1 Clone 37 (scFv) scFv: QVQLVQSGAEVKKPGASVKVSCKASGYTFSKHFVHWVRQAPGQGLEWMGWMNPNSGNSGYAQKFQGRVTMTRDTSTSTVYMELSSLRSEDTAVYYCARGEGGYYYYGMDVWGQGTLVTVSSGGGGSGGGGSGGGGSGGGGSDIQMTQSPSSLSASVGDRVTITCRASQSISSWLAWYQQKPGKAPKLLIYAASTLQSGVPSRFSGSGSGTDFTLTISSLQPEDFATYYCQQSYSTPWTFGQGTKVEIK |
| no binding | binds | MAdCAM Antibody Table 1 Clone 56 (scFv) scFv: EVQLLESGGGLVQPGGSLRLSCAASGFTFDDYAMHWVRQAPGKGLEWVSAISGGGEDTYYADSVKGRFTISRDNSKNTLYLQMNSLRAEDTAVYYCARDASYGGNYGMDVWGQGTTVTVSSGGGGSGGGGSGGGGSGGGGSDIQMTQSPSSLSASVGDRVTITCQASQDIRNYLNWYQQKPGKAPKLLIYKASSLESGVPSRFSGSGSGTDFTLTISSLQPEDFATYYCQQANSYPVTFGGGTKVEIK |
